Reference: US20260070974A1 (NONA BIOSCIENCES SUZHOU, published 2026)

How the values were obtained:
[1] = target: T1, mouse Siglec-15-his protein (Acrobiosystems, Cat #: SG5-M52H7) (mouse); assay: ELISA, coated mouse Siglec-15-his
T1 construct: Bought protein; also called mouse Siglec-15 protein
Method: (§1) […] mouse Siglec-15-his protein (Acrobiosystems, Cat #: SG5-M52H7) dissolved in PBS was added to an ELISA plate at 100 μL/well for coating and the plate was incubated overnight at 4° C. The ELISA plate was then blocked with PBST (PBS+0.05% Tween 20) containing 2% BSA at 200 μL/well and incubated at 37° C. for 1 h. The ELISA plate was washed 4 times with PBST. The anti-Siglec-15 antibody diluted in a gradient (5-fold dilution, starting concentration: 6.67 nM) was added to the ELISA plate at 100 μL/well and the plate was incubated at 37° C. for 1 h. The ELISA plate was washed 4 times with PBST. The goat anti-human IgG (H+L)-HRP (1:5000, Jackson, Cat: 109-035-088) was added at 100 μL/well and the plate was incubated at 37° C. for 1 h. The ELISA plate was washed 4 times with PBST. The TMB substrate (Biopanda, Cat: TMB-S-003) was added at 100 μL/well, and the plate was incubated at room temperature for 5 min, and then the stop buffer (Solarbio, Cat #: C1058) was added at 100 μL/well to stop the reaction.

[2] = target: T2, human Siglec-15 on CHO-K1/human Siglec-15 cells (KYinno, Beijing) (human, UniProt Q6ZMC9 20-328); assay: flow cytometry on CHO-K1/human Siglec-15 cells
T2 sequence: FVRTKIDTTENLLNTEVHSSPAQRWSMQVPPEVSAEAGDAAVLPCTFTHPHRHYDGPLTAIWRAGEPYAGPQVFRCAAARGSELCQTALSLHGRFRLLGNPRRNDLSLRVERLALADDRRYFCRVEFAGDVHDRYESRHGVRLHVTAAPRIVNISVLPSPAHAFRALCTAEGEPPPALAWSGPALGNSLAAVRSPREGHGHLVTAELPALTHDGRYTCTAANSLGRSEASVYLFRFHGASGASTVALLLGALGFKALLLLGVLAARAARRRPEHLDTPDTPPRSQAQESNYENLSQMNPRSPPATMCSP
Method: CHO-K1/human Siglec-15 cells (KYinno, Beijing) were adjusted to a density of 1×10⁶/mL with PBS, and the cell suspension was added to a 96-well V-bottom plate at 100 μL/well. The 96-well V-bottom plate was centrifuged at 1000 rpm for 5 min and washed once with PBS+2% FBS. The cells were resuspended in […] of antibody diluted in a gradient (5-fold dilution, starting concentration: 500 nM) and incubated at 4° C. for 1 h, and PR300066 and hIgG1 were used as positive control and negative control, respectively. After 1 h, the cells were washed twice with PBS+2% FBS. The cells were incubated with 100 μL of Alexa Fluor 488 goat anti-human IgG (Jackson, Cat #: 109-545-098) at 4° C. for 1 h in the dark and then washed twice with PBS+2% FBS. The cells were then resuspended in 200 μL of PBS+2% FBS. The fluorescence intensity of the cells was analyzed using a BD FACSCanto™ II flow cytometer.

[3] = target: T3, cynomolgus monkey Siglec-15-his protein (Acrobiosystems, Cat #: SG5-C52H6) (cynomolgus monkey, UniProt Q6ZMC9 20-263 (human entry)); assay: ELISA, coated cynomolgus monkey Siglec-15-his
T3 construct: Bought protein; also called cynomolgus monkey Siglec-15 protein; not shown: his tag
T3 chain: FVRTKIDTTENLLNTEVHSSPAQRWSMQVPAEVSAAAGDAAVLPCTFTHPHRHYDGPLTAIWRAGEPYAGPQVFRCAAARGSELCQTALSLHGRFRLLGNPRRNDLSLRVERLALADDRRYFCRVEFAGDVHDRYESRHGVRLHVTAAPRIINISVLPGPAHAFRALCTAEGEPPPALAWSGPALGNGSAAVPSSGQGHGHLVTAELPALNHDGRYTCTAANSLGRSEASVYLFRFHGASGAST
Method: […] cynomolgus monkey Siglec-15-his protein (Acrobiosystems, Cat #: SG5-C52H6) dissolved in PBS was added to an ELISA plate at 100 μL/well for coating and the plate was incubated overnight at 4° C. The ELISA plate was then blocked with PBST (PBS+0.05% Tween 20) containing 2% BSA at 200 μL/well and incubated at 37° C. for 1 h. The ELISA plate was washed 4 times with PBST. The anti-Siglec-15 antibody diluted in a gradient (5-fold dilution, starting concentration: 6.67 nM) was added to the ELISA plate at 100 µL/well and the plate was incubated at 37° C. for 1 h. The ELISA plate was washed 4 times with PBST. The goat anti-human IgG (H+L)-HRP (1:5000, Jackson, Cat #: 109-035-088) was added at 100 μL/well and the plate was incubated at 37° C. for 1 h. The ELISA plate was washed 4 times with PBST. The TMB substrate (Biopanda, Cat #: TMB-S-003) was added at 100 μL/well, and the plate was incubated at room temperature for 5 min, and then the stop buffer (Solarbio, Cat #: C1058) was added at 100 μL/well to stop the reaction.

[4] = target: T4, human Siglec-15 ECD-his protein (Acrobiosystems, Cat #: SG5-H52H3) (human, UniProt Q6ZMC9 20-263); assay: ELISA, coated human Siglec-15 ECD-his
T4 construct: Bought protein; only its extracellular domain stood in the assay; also called human Siglec-15 protein; recombinant human Siglec-15 protein; not shown: his tag
T4 sequence: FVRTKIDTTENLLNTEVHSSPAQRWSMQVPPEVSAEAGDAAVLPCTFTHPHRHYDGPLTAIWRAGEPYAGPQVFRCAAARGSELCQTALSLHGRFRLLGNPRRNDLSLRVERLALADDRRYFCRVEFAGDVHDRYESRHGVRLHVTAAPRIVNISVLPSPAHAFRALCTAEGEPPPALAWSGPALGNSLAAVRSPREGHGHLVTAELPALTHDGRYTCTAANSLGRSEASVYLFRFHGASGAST
Method: as §1, with “human Siglec-15 ECD-his” for “mouse Siglec-15-his”, “SG5-H52H3)” for “SG5-M52H7)”, “Cat #:” for “Cat:”

[5] = target: T4, human Siglec-15 ECD-his protein …; assay: BLI (Octet RED96), antibody on AHC sensor, Siglec-15 ECD-his as analyte
Method: Recombinant Human Siglec-15 Protein Affinity was determined using an Octet RED96 instrument (ForteBio) and an anti-human IgG Fc capture sensor (AHC biosensor, ForteBio, Cat #: 18-5060) according to the detailed procedures and methods provided by the manufacturer. Specifically, candidate antibodies were each diluted to a final concentration of 6 µg/mL and directly immobilized on AHC biosensors for kinetic measurements. The antigenic protein Siglec-15 ECD-his protein (Acrobiosystems, Cat #: SG5-H52H3) was diluted with 10× Kinetics buffer to 3 concentrations of 60 nM, 30 nM, and 15 nM separately and injected as the analyte for 120 s with a dissociation time of 400 s and then subjected to regeneration with 10 mM glycine HCl (pH 1.5) for 15 s. The association rate (kon) and dissociation rate (kdis) were calculated using a simple one-to-one Languir binding model (Octet Red96 data analysis software). The equilibrium dissociation constant (kD) was calculated as the ratio of kdis/kon.

B1: PR300670 (antibody, human IgG1, kappa, V domains shown)
VH: QVQLVESGGGVVQPGRSLRLSCVASGFTFSTYGIHWVRQAPGKGLDWVSVIWYDGSHKYYADSVQDRFTISRDNSKNTLYLQMNSLRAEDTAVYYCAREGMITMVRGVIIDYQYHGMDVWGQGTTVTVSS
VL: DIQMTQSPSTLSASVGDRVTITCRASQSIGRRLAWYQQKPGKAPKLLIYKASSLESGVPSRFSGSGSGTEFTLTISSPQPDDFATYYCQQYHSYSYTFGQGTKLEIKR
With B1 the EC50 [1] was 0.079 nM, the EC50 [2] was 1.49 nM and the “Maximum (MFI)” value [2] was 16600 MFI. The EC50 [3] was 0.025 nM, the EC50 [4] was 0.018 nM and the Kd [5] was 0.0858 nM. The koff [5] was 3.09e-05 s⁻¹ and the kon [5] was 361000 M⁻¹ s⁻¹.
